1 substance from article doi:10.1101/2025.10.12.681846v1 (bioRxiv, 2025) can be followed below.

Read-outs that look alike come from different tables or passages of the source.

For one experiment, the system named is healthy mice. Nature of the experiment: Isoglycaemic. In kind it is in vivo. Particulars: summary statement.
A further experiment concerns the target T1, mouse nostrin (Mus musculus, UniProt Q6WKZ7).
T1 sequence (Q6WKZ7 1-506): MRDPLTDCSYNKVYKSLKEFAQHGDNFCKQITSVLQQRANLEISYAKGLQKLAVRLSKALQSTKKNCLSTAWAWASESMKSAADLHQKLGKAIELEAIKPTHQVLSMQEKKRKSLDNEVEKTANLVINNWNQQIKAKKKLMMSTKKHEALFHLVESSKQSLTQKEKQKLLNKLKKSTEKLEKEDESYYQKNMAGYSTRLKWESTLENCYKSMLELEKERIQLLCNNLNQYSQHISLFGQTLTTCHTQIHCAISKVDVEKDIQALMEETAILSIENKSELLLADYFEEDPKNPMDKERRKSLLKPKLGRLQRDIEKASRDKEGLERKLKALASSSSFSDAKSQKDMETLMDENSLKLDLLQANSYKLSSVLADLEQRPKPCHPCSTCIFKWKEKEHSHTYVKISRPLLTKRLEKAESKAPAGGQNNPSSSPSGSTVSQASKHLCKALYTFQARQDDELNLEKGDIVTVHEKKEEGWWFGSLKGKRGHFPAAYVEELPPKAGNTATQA
Nature of the experiment: SPR binding to mouse nostrin. Particulars: for Kd: read-out: KD for nostrin, SPR, 25 °C, DPBS pH 7.4.

The Kd is the constant that tells how readily two partners part at equilibrium. Turning to “insulin-129: recombinant human insulin with 4-carboxy-3-fluorophenylboronic acid (FPBA) covalently conjugated at A1 and B29 sites”, in the experiment with healthy mice, the “temporal change in blood glucose clearance determined by clamp studies” value stood at 2 fold. The “increase in KD for nostrin” value in the experiment with mouse nostrin (glucose from 0 to 20 mM) is 19.5 fold; in the experiment with mouse nostrin (glucose from 5 to 20 mM) it was 8.4 fold. For the same substance, the equilibrium dissociation constant (Kd) with mouse nostrin (5 mM glucose) turned out to be 0.201 µM; with mouse nostrin (10 mM glucose), 0.605 µM; with mouse nostrin (20 mM glucose), 1.68 µM; with mouse nostrin (absence of glucose) it was 0.086 µM.
